Experimental data taken from patent US10799597B2, “Subcutaneous administration of antibody-drug conjugates for cancer therapy” (Immunomedics, Inc., priority 2017, dated 2020).
Several values for one entry are separate records, joined by “and”; a condition that tells them apart may be missing. Equal values may be shown once.

How the values were obtained:
[1] = system: diverse metastatic cancers; test: Phase I/II clinical trial of IMMU-132 (Example 9): best response and TTP
Description: (§1) To optimize cumulative treatment with minimal delays, phase II is focusing on 8 and 10 mg/kg (n=30 and 14, respectively). […] [table]

[2] = Tolerability of multiple subcutaneous injections of IMMU-132 in nude mice; format: in vivo, female nude mice; settings: s.c. 2 mg or 500 μg twice a week for four weeks
Description: One group of two mice received 2 mg injections (HED=8 mg/kg) while a second group of two animals, 500 μg (HED=2 mg/kg). For comparison, one mouse received only saline injections. Each injection (100 μL) was administered at the same location (i.e., right rear flank) twice a week for four weeks. Mice were weighed on the day of injection and the injection site examined for any signs of toxicity (i.e, rash, ulceration, etc.). If any occur, it would be documented by photographing the area. One day after the last injection, the mice were anesthetized and the injection site photographed (FIG. 12). This was repeated one week after the final injection (FIG. 13).

[3] = Phase I/II trial of IMMU-132: MTD and toxicity profile; format: in vivo, human; settings: 75 patients in the full trial
Description: Patients with metastatic cancers were enrolled after failing standard therapy, starting at a dose of 8.0 mg/kg given on days 1 and 8 of a 3-week cycle.

[4] = Tolerability in Swiss-Webster mice; format: in vivo
[5] = Tolerability in Cynomolgus monkeys; format: in vivo, Cynomolgus monkeys (Macaca fascicularis)
Description: FIG. 5C. Tolerability of hRS7-CL2A-SN-38 in Cynomolgus monkeys. […] All animals were bled on day −1, 3, and 6. Four monkeys were bled on day 11 in the 0.96 mg/kg group, 3 in the 1.92 mg/kg group. Changes in neutrophil counts in Cynomolgus monkeys.
FIG. 5D. Tolerability of hRS7-CL2A-SN-38 in Cynomolgus monkeys. […] All animals were bled on day −1, 3, and 6. Four monkeys were bled on day 11 in the 0.96 mg/kg group, 3 in the 1.92 mg/kg group. Changes in platelet counts in Cynomolgus monkeys.

[6] = system: Capan-1 pancreatic adenocarcinoma xenografts; test: Therapy of Capan-1 tumor xenografts in nude mice; format: in vivo, athymic nude mice; settings: 0.2 mg/kg SN-38 twice weekly×4 weeks
Description: FIG. 3C. […] Animals were treated twice weekly for 4 weeks as indicated by the arrows. Capan-1 mice (N=10) were treated with 0.2 mg/kg ADC and tumors measured weekly.
FIG. 4C. […] Capan-1 (N=10) were treated twice weekly for 4 weeks with the agents indicated.

[7] = Pharmacokinetics and biodistribution of 111In-labeled hRS7-CL2A-SN-38 and hRS7 IgG in nude mice bearing SK-MES-1 tumors; format: in vivo
Description: One group was injected intravenously with 20 μCi (250-μg protein) of ^111In-hRS7-CL2A-SN-38, whereas another group received 20 μCi (250-μg protein) of ^111In-hRS7 IgG. At various timepoints mice (5 per timepoint) were anesthetized, bled via intracardiac puncture, and then euthanized. Tumors and various tissues were removed, weighed, and counted by γ scintillation to determine the percentage injected dose per gram tissue (% ID/g). […] Pharmacokinetic analysis on blood clearance was performed using WinNonLin software (Parsight Corp.).

[8] = system: triple-negative breast cancer; test: Subcutaneous IMMU-132 in triple-negative breast cancer patients (Example 10); format: in vivo, human
Description: Maintenance doses of ADC are administered i.v. or s.c. every two to three weeks or monthly after induction. Alternatively, induction may occur with two to four cycles of i.v. administration at 8-10 mg/kg (each cycle with ADC administration on Days 1 and 8 of two 21-day cycles with a one-week rest period in between), followed by s.c. administration as active dosing one or more times weekly or as maintenance therapy. Dosing may be adjusted based on interim tumor scans and/or by analysis of Trop-2 positive circulating tumor cells.

BxPC-3 = test: Signaling events (p21Waf1/Cip1, p53) in BxPC-3 cells; format: cell-based, human
Text: SN-38 is known to activate several signaling pathways in cells, leading to apoptosis (e.g., Cusack et al., 2001, Cancer Res 61:3535-40; Liu et al. 2009, Cancer Lett 274:47-53; Lagadec et al., 2008, Br J Cancer 98:335-44). Our initial studies examined the expression of 2 proteins involved in early signaling events (p21^Waf1/Cip1 and p53) and 1 late apoptotic event [cleavage of poly-ADP-ribose polymerase (PARP)] in vitro (not shown).

[9] = Phase I/II clinical trial of IMMU-132 (Example 9): related adverse events
Description: as §1

[10] = 48 assessable patients (excluding PDC)
[11] = 49 patients reporting related AE
[12] = related AE, N = 47 patients, CTCAE v 4.0

Which “patients with SD” value ([1]; 13 CT-assessable PDC patients) does the source give for “IMMU-132: ADC of the humanized hRS7 anti-Trop-2 antibody conjugated by a pH-sensitive linker (CL2A) to SN-38” here?
Its value is 62%.

And the “patients with disease response (total)” value [1, 10]?
The value was 79%.

What about the “patients with partial response (PR)” value [1, 10] of the same substance?
Its value is 15%.

And the “median time to progression (TTP)” value ([1]; PDC patients)?
The value was 12.7 wks and 11.9 wks.

What about the “skin irritation at the site of multiple injections” value [2] of the same substance?
The value was “no evidence of skin irritation”.

And the “Grade 3 diarrhea” value [3]?
Its value is 6.7%.

And the “Grade 3 neutropenia” value [3]?
Its value is 17.3%.

And the “Grade 4 neutropenia” value [3]?
The value was 2.7%.

What about the “chloride levels, range” value ([4]; 2 highest dosage groups, upper end of normal range 115 mmol/L) of the same substance?
Its value is 116 to 127 mmol/L.

And the weight loss ([4]; 2 i.p. doses over 3 days of 4, 8, and 12 mg SN-38/kg)?
Its weight loss is “minimal transient weight loss”.

What about the “mice with elevated chloride levels” value ([4]; 2×8 mg/kg group) of the same substance?
The value was 57%.

And the “mice with slightly elevated glucose levels” value ([4]; 2×8 mg/kg, of 7 mice)?
Its value is 5.

And the “elevated glucose levels, range” value ([4]; 2×8 mg/kg, upper end of normal 263 mg/dL)?
The value was 273 to 320 mg/dL.

What about the “mice with elevated chloride levels” value ([4]; 2×12 mg/kg group) of the same substance?
Its value is 100%.

What about the “aspartate transaminase (AST)” value ([4]; seven days after treatment, all 3 treatment groups, normal limit 298 U/L) of the same substance?
The value was “rose above normal levels”.

And the blood count values ([5]; 2×0.96 mg SN-38/kg, transient decreases)?
The blood count values was “did not fall below normal ranges”.

What about the “MTD, human equivalent dose” value ([5]; cynomolgus monkey, in vivo) of the same substance?
The value was 2×0.3 to 0.6.

What about the “tumor growth vs. saline and hA20-CL2A-SN-38” value [6] of the same substance?
Its value is “significantly inhibited tumor growth”.

What about the “mice tumor-free at the end of the study” value ([6]; day 140) of the same substance?
Its value is 50%.

What about the “amount in the tumor compared with hRS7 IgG” value ([7]; 72 hours (peak uptake)) of the same substance?
Its value is “similar”.

What about the “half-life shorter than unconjugated hRS7” value ([7]; i.v., 250-μg protein) of the same substance?
The value was ~40%.

What about the “localized reaction at the administration site” value ([8]; s.c.) of the same substance?
The value was “no adverse localized reaction is observed”.

What about the “average decrease in tumor volume” value ([8]; s.c. 2 to 4 mg/kg schedules, after two cycles of therapy) of the same substance?
The value was 35%.

And the “time of p53 upregulation” value (BxPC-3)?
The value was ≤ 24 h.

What about the alopecia [9, 11] of the same substance?
The alopecia was 40%.

What about the diarrhea [9, 11] of the same substance?
The diarrhea was 47%.

What about the fatigue [9, 11] of the same substance?
Its fatigue is 55%.

What about the nausea [9, 11] of the same substance?
The nausea was 53%.

What about the “neutropenia G4” value [9, 11] of the same substance?
The value was 4%.

What about the vomiting [9, 11] of the same substance?
Its vomiting is 32%.

What about the “Abdominal pain, Grade 3, patients (%)” value [9, 12] of the same substance?
Its value is 0.

What about the “Abdominal pain, Grade 4, patients (%)” value [9, 12] of the same substance?
The value was 0.

And the “Anemia, Grade 3, patients (%)” value [9, 12]?
Its value is 2 (4%).

And the “Anemia, Grade 4, patients (%)” value [9, 12]?
Its value is 0.

What about the “Deep vein thrombosis, Grade 3, patients (%)” value [9, 12] of the same substance?
The value was 1 (2%).

What about the “Deep vein thrombosis, Grade 4, patients (%)” value [9, 12] of the same substance?
Its value is 0.

What about the “Diarrhea, Grade 3, patients (%)” value [9, 12] of the same substance?
The value was 4 (9%).

What about the “Diarrhea, Grade 4, patients (%)” value [9, 12] of the same substance?
Its value is 0.

What about the “Dysgeusia, Grade 3, patients (%)” value [9, 12] of the same substance?
Its value is 0.

And the “Dysgeusia, Grade 4, patients (%)” value [9, 12]?
The value was 0.

And the “Fatigue, Grade 3, patients (%)” value [9, 12]?
The value was 4 (9%).

What about the “Fatigue, Grade 4, patients (%)” value [9, 12] of the same substance?
The value was 0.

What about the “Febrile Neutropenia, Grade 3, patients (%)” value [9, 12] of the same substance?
The value was 1 (2%).

What about the “Febrile Neutropenia, Grade 4, patients (%)” value [9, 12] of the same substance?
Its value is 2 (4%).

What about the “Hypokalemia, Grade 3, patients (%)” value [9, 12] of the same substance?
Its value is 1 (2%).

And the “Hypokalemia, Grade 4, patients (%)” value [9, 12]?
Its value is 0.

What about the “Nausea, Grade 3, patients (%)” value [9, 12] of the same substance?
The value was 0.

And the “Nausea, Grade 4, patients (%)” value [9, 12]?
The value was 0.

And the “Neutropenia, Grade 3, patients (%)” value [9, 12]?
Its value is 11 (24%).

What about the “Neutropenia, Grade 4, patients (%)” value [9, 12] of the same substance?
The value was 2 (4%).

What about the “Pyrexia, Grade 3, patients (%)” value [9, 12] of the same substance?
Its value is 0.

And the “Pyrexia, Grade 4, patients (%)” value [9, 12]?
Its value is 0.

What about the “Vomiting, Grade 3, patients (%)” value [9, 12] of the same substance?
The value was 1 (2%).

What about the “Vomiting, Grade 4, patients (%)” value [9, 12] of the same substance?
Its value is 0.

And the “WBC Decrease, Grade 3, patients (%)” value [9, 12]?
The value was 1 (2%).

And the “WBC Decrease, Grade 4, patients (%)” value [9, 12]?
The value was 0.
